The values that follow come from patent EP4643867A1 (Eberhard Karls Universität Tübingen (Medizinische Fakultät), dated 2025).

In experiment [1] the target is VEGF (autocrine, of U937 acute myeloid leukemia cells) (UniProt P15692-4 27-191, limits assumed). Description: cell-based or functional assay.
In experiment [2] the target is T1, Recombinant Human VEGF165 (R&D Systems, 293-VE-010/CF) (human, UniProt P15692 27-191).
T1 construct: mature; Amine-coupled to a CM5 chip for SPR, and added to the medium in the HUVEC survival assay; also called rhVEGF
Put plainly: SPR (Biacore X100), rhVEGF165 amine-coupled to CM5 chip, design as analyte, multi-cycle kinetics, 1:1 binding assumed. (In general: In SPR one partner is held on a chip, and binding of the other changes the refractive index at the surface.)

Where “and” joins values, the source holds several entries; their conditions need not be identical. Identical values can stand only once.

Sequence of VEGF (autocrine, of U937 acute myeloid leukemia cells) (P15692 other isoform, or with tags, fused parts or gaps limits assumed): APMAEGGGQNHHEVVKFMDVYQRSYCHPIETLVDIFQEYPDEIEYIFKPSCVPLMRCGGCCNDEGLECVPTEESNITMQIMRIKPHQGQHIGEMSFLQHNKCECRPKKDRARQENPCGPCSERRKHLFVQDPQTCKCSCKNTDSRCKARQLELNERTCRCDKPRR
T1 sequence (P15692 other isoform, or with tags, fused parts or gaps): as the sequence (P15692 other isoform, or with tags, fused parts or gaps limits assumed) above

B1: Sima3.2 (designed binder)
chain: STNISPKQGLDKAKYFSGKWYLTHVLIKDPKIVSQFCASFTPRESDGTVKIAVYLYLAIKKTSDYAIGEGKLESSGLQYTATSKVVDKKKAVLKELDERHSYTVTVLEADDSSALTHITVREGSKDYGDYYLVLTHQKDAEPSAKVKSAVTQAGLQLSQFVGTKDLGCQYDDQFTSL
notes: not shown: N-terminal poly-histidine tag and thrombin cleavage site from pET28a(+)
One may read the Kd as the concentration at which binding is half-saturated. On to B1, for which the “IC50, proliferation of U937 cells” value in experiment [1] is 3.6 µg/ml and 180 nM. Besides, the Kd in experiment [2] was determined as 14 nM.

B2: Sam0.7 (designed binder)
chain: LPTAEEVQKLMARYIELMDVGDIEAIVQMYADDATVEAPFGAPPIHGRERIAYFYRRMLGGGIARATLTGPVRASHNGTGAMPFRVEYVFNGQPFAMDVRVEMRFDEHGRIQTMQAYWDWVNLSVREP
notes: Designed on the ketosteroid isomerase scaffold (PDB 1OH0); Made in E. coli; The monomeric gel filtration fraction was used; not shown: N-terminal poly-histidine tag and thrombin cleavage site from pET28a(+)
Turning to B2, the “IC50, proliferation of U937 cells” value in experiment [1] was 8 µg/ml and 533 nM. Further, the dissociation constant (Kd) in experiment [2] was 190 nM.
